Assay results published in article PMC9333307.

Molecular target: Urtica dioica agglutinin (Urtica dioica (stinging nettle))
Experiment: ELISA; microwells coated with serial dilutions (1:2 to 1:16) of UDA in PBS at 4°C overnight; blocked with 0.3% skim milk; 0.5 μg.mL recombinant RBD added for 1 h at RT; detected with rabbit anti-his antibodies and HRP-conjugated secondary antibody, TMB, absorbance at 450 nm; wells without UDA as negative control
Parameters: unit not given here

## recombinant receptor-binding domain (RBD) of SARS-CoV-2 Spike protein (from UniProt P0DTC2 319-541) (domain or fragment)
  absorbance at 450 nm: 420
